Measured values from patent publication US9289468B2, “Fusion protein comprising circularly permuted form of trail/Apo2L, coding gene and use thereof” (Beijing Sunbio Biotech Co. Ltd., priority 2011, dated 2016).
Entries after “also recorded” stand apart in the source; their conditions may differ.

Experiments:
[1] = tested on: human multiple myeloma cell RPMI 8226; test: Morphological observation of induced apoptosis (MGG staining); format: cell-based; settings: 200 ng/ml, 3 h
Description: FIG. 3. The morphological change of the apoptosis of human multiple myeloma cell RPMI 8226 induced by NCPT-1.M1. The cells were incubated with NCPT-1.M1 (200 ng/ml) for 3 h and then prepared as smears before MGG staining.
The RPMI 8226 cells (ATCC) were cultured in cell culture flasks until logarithmic growth phase, collected by centrifugation, resuspended with complete medium (10% FBS-RPMI1640) at 1×10^6/well, added into 6-well cell culture plate (Costar). The NCPT-1.M1 was diluted with complete medium, added to a final concentration of 200 ng/ml, incubated at 37° C. in 5% CO2 incubator for 3 h. The cells were collected, prepared as smears, fixed with methanol before May-Grünwald-Giemsa (MGG, May-Grünwald stain, commercial available from Beijing ZhongYe HengYuan Chemicals, Giemsa stain, commercial available from Solarbio) staining.

NCI-H460 cells = test: Assay of killing activity on lung cancer cell line (crystal violet, IC50); format: cell-based, human
Description: The NCI-H460 cells (ATCC) were cultured in flasks until logarithmic growth phase, digested with 0.25% trypsin (Amresco), collected by centrifugation (1000 rpm, 5 min), resuspended in RPMI1640 medium (Invitrogen) containing 3% fetal bovine serum (FBS), counted and adjusted to 1.5×10^5/ml cell suspension, added into 96-well culture plates (Nunc) at 100 μl/well, and incubated at 37° C. in 5% CO2 incubator overnight. The sample to be tested was diluted to a certain concentration with 1640 medium containing 3% FBS, and further diluted at 4-fold dilutions (8 dilutions). The supernatant in the culture plate was discarded, and serial dilutions of the sample to be tested was added into the plate at 100 μl/well with a negative control and blank control set aside, incubated at 37° C. under 5% CO2 for 20-24 hours. Following examination under microscope, the supernatant was discarded, each well was added 50 μl 0.05% crystal violet solution (50 mg crystal violet was dissolved in 20 ml anhydrous ethanol, and water was added to the volume of 100 ml, then stored at room temperature) and stained for 3-5 minutes. The crystal violet was carefully washed with flowing water, the remaining water was removed by spin-drying, a destaining solution (50 ml distilled water, 50 ml anhydrous ethanol, and 0.1 ml glacial acetic acid were thoroughly mixed and stored at room temperature) was added at 100 μl/well, then the reading at OD570 was measured on a microplate reader (Bio-Rad 680) (reference wavelength of 630 nm). The inhibitory concentration 50 (IC50) of each sample was calculated by a four-parameter Logistic fitting using Sigmaplot10.0 software. The IC50 for CPT and each mutant of NCPT-1, NCPT-2, and NCPT-3 were calculated, and the activity change of each mutant was represented as a ratio of the IC50 of each mutant to that of CPT (Table 1).

[2] = tested on: human COLO 205 xenograft tumor; test: Inhibitory activity on human colon cancer xenograft tumors; format: in vivo, Balb/c nu mice
Description: 4 to 5 weeks old Balb/c nu mice ♂ (Institute of Experimental Animals, Chinese Academy of Medical Sciences) were subcutaneously inoculated with COLO 205 human colon tumor tissue pieces. When the tumor grew to the volume of 120 mm3, the tumor-bearing mice were divided into 4 groups (n=7/group), which were intraperitoneally injected with normal saline (negative control group), NCPT-1.M1 5 mg/kg, NCPT-1.M1 15 mg/kg and wtTRAIL 15 mg/kg once a day for 10 consecutive days. […] During the experiment, the tumor length diameter (a) and wide diameter (b) were measured every two days with a vernier caliper, and tumor volume (TV) was calculated according to the following formula: TV=½×a×b^2; From the above, the relative tumor volume (RTV) was calculated according to following formula: RTV=Vt/V0. Wherein V0 is the tumor volume measured on the day of the administration, but before administration (i.e., d0), and Vt is the tumor volume measured every time. The relative tumor proliferation rate T/C (%) is used as an evaluation index. Evaluation criteria: T/C (%)>40% means no effect; T/C (%)≦40% and the statistical significance of P<0.05 means being effective.
T/C %=RTVT/RTVC*100%. (RTVT: RTV of the treatment group; […]: RTV of the negative control group).

[3] = tested on: human lung cancer cell line NCI-H460; test: TUNEL staining of apoptosis; format: cell-based; settings: 15 ng/ml, 4 h
Description: FIG. 4. TUNEL assay of apoptosis of human lung cancer cell line NCI-H460 induced by NCPT-1.M1. The NCI-H460 cells were incubated with NCPT-1.M1 (15 ng/ml) for 4 h and then prepared as smears before TUNEL staining. […] In control group, nucleus remains intact, and no characteristic brown stained chromatins are seen (A).
During the process of apoptosis, the genomic DNA can be broken into double-strand, low molecular weight DNA fragments and high molecular weight single-stranded DNA fragments with broken ends (gaps), and these DNA strand gaps can be identified using enzyme-labeled nucleotide 3′-terminal labeling method. In the case of catalytic action of terminal deoxynucleotidyl transferase (TdT), FITC-labeled nucleotide can be incoporated to the free 3′ end nucleotide with template-independent manner, and thereby making the gap of the DNA strand labeled (TUNEL method). The labeling FITC can be recognized by horseradish peroxidase (POD) conjuncated sheep-derived Fab fragment. Upon development with DAB (3,3-diaminobenzidine), the cells stained as brown, which were apoptotic cells, were examined under light microscopy. TUNEL technique is a common method to detect apoptosis. The apoptosis upon incubation of NCI-H460 cell with NCPT-1.M1 was examined using TUNEL technique. […]

RPMI8226 tumor = test: Combination with melphalan and prednisone on human multiple myeloma xenograft tumor; format: in vivo, Balb/c nu athymic nude mice; settings: NCPT-1.M1 15 mg/kg ip x10 days; melphalan 0.75 mg/kg po x5 days; prednisone 10 mg/kg po x10 days
Description: Male Balb/c nu athymic nude mice (Beijing Huafukang Biotechnology Co., Ltd.) were subcutaneously inoculated with 5×10^6 RPMI8226 tumor cells/mouse. […] The tumor volumes were measured with a caliper every two days.

[4] = 5 mg/kg i.p. once a day for 10 days
[5] = 15 mg/kg i.p. once a day for 10 days

B1: NCPT-1.M1: MG+His6+NCPT-1 fusion protein, SEQ ID NO: 5 (protein)
chain: MGHHHHHHTLSSPNSKNEKALGRKINSWESSRSGHSFLSNLHLRNGELVIHEKGFYYIYSQTYFRFQEEIKENTKNDKQMVQYIYKYTSYPDPILLMKSARNSCWSKDAEYGLYSIYQGGIFELKENDRIFVSVTNEHLIDMDHEASFFGAFLVGGGGGGRVAAHITGTRGRSNT
modifications: NCPT-1.M1 polypeptide sequence
[1]
  morphological features of apoptosis (MGG staining): obvious features of apoptosis were observed
NCI-H460 cells; 20-24 hours, crystal violet
  Ratio of IC50 of mutants to IC50 of CPT (H460 cells): 0.1
NCI-H460 cells; based on IC50
  killing activity compared to that of CPT: significantly higher than that of CPT
[2]; [4]
  relative tumor volume RTV: 1.39
  tumor proliferation rate T/C(%): 29.89%
  Tumor volume TV beginning: 117 ± 20.4 mm^3
  Tumor volume TV ending: 197 mm^3
[2]; [5]
  relative tumor volume RTV: 0.12
  Tumor volume TV beginning: 118 ± 21.0 mm^3
  Tumor volume TV ending: 15 mm^3
[2]; both dosage groups of NCPT-1.M1 (5, 15 mg/kg), wtTRAIL 15 mg/kg
  evaluation of efficacy (T/C ≦40% and P<0.05 means being effective): effective
[3]
  apoptosis by TUNEL staining: a large number of NCI-H460 cells experience apoptosis; also recorded: Almost all of the tumor cells exhibit characteristic of apoptosis
RPMI8226 tumor
  mice in which the tumors completely disappeared: 16%
